Here are results for two molecules from patent US20110008350A1 (published 2011).

B1: CD81/TAPA-1 (endogenous, MEF cells) (other, mouse, UniProt P35762 1-236, looked up)
chain: MGVEGCTKCIKYLLFVFNFVFWLAGGVILGVALWLRHDPQTTSLLYLELGNKPAPNTFYVGIYILIAVGAVMMFVGFLGCYGAIQESQCLLGTFFTCLVILFACEVAAGIWGFVNKDQIAKDVKQFYDQALQQAVMDDDANNAKAVVKTFHETLNCCGSNALTTLTTTILRNSLCPSGGNILTPLLQQDCHQKIDELFSGKLYLIGIAAIVVAVIMIFEMILSMVLCCGIRNSSVY
B2: dTag PSH1 (double-tagged human Presenilin homolog 1) (other, UniProt Q8TCT6 1-384, looked up, not shown: small tags and cut ends)
chain: MAEQTYSWAYSLVDSSQVSTFLISILLIVYGSFRSLNMDFENQDKEKDSNSSSGSFNGNSTNNSIQTIDSTQALFLPIGASVSLLVMFFFFDSVQVVFTICTAVLATIAFAFLLLPMCQYLTRPCSPQNKISFGCCGRFTAAELLSFSLSVMLVLIWVLTGHWLLMDALAMGLCVAMIAFVRLPSLKVSCLLLSGLLIYDVFWVFFSAYIFNSNVMVKVATQPADNPLDVLSRKLHLGPNVGRDVPRLSLPGKLVFPSSTGSHFSMLGIGDIVMPGLLLCFVLRYDNYKKQASGDSCGAPGPANISGRMQKVSYFHCTLIGYFVGLLTATVASRIHRAAQPALLYLVPFTLLPLLTMAYLKGDLRRMWSEPFHSKSSSSRFLEV
notes: Control bait, stably expressed in PS dKO MEF cells; also called dTag SPPL3; SPP-like protease 3

The target in assay [1] is B2. The assay can be described thus: TAP-tag purification from MEF membranes, LC-MS/MS. On the procedure: (§1) Harvested MEF cells were re-suspended in STE buffer (5 mM Tris-HCl pH 7.4, 250 mM sucrose, 1 mM EGTA) supplemented with the Complete protease inhibitors. The cells were lysed by being passed ten times through a ball-bearing cell cracker followed by removal of the nuclei and cell debris by centrifugation at 800×g for ten minutes at 4° C. The supernatant was further centrifuged at 100,000×g for 60 minutes at 4° C. The microsomal membrane pellet was re-suspended in the solubilization buffer (HEPES buffer; 50 mM HEPES pH 7.2, 150 mM NaCl with 1% 3-[(3-Cholamidopropyl)dimethylammonio]-2-hydroxy-1-propanesulfonate (CHAPSO, Calbiochem) or 0.5% 3-[(3-Cholamidopropyl) dimethylammonio]-1-propanesulfonate (CHAPS, Calbiochem)) supplemented with the Complete protease inhibitors and was solubilized at 4° C. for three hours. After centrifugation at 100,000×g for 60 minutes at 4° C., the supernatant was saved and protein concentration was determined. The solubilized membranes were applied on pre-equilibrated anti-FLAG M2 affinity gel (Sigma). The gel was washed with the solubilization buffer and bound proteins were eluted with solubilization buffer with 20 μg/ml of FLAG peptides (Sigma). […] After washing, the bound proteins were eluted with 5 mM EGTA.

Another assay has as its target T1, Integrin alpha-3 (mouse, UniProt Q62470 33-1053, limits assumed).
T1 construct: also called Itga3; α3β1 integrin (alpha chain)
T1 sequence (looked up): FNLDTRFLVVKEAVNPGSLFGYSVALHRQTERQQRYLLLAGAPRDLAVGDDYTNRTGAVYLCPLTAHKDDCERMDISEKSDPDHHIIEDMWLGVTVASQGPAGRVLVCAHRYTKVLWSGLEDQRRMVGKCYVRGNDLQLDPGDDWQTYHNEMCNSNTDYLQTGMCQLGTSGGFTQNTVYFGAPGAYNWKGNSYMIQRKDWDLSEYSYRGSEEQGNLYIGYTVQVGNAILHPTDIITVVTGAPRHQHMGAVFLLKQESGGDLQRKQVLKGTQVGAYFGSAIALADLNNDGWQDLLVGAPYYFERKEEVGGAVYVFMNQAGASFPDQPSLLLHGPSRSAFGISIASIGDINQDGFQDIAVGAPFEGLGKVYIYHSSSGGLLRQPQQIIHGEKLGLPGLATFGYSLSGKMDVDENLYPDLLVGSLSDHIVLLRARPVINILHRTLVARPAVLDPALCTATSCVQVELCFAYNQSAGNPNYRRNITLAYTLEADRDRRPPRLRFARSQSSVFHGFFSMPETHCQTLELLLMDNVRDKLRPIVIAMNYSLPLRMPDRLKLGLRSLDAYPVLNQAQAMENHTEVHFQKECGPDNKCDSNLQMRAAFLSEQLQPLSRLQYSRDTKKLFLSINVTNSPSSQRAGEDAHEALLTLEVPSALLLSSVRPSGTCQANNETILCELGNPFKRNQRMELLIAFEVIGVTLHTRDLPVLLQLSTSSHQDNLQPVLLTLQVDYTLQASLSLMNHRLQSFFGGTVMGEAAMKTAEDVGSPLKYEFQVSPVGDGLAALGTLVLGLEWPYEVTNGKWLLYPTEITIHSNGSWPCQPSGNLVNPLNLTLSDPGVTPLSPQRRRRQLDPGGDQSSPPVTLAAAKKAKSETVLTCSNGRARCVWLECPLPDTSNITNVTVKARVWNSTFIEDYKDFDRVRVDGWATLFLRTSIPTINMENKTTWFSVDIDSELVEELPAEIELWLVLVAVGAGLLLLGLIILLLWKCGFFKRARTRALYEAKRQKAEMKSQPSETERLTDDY
The assay can be described thus: TAP-tag purification from MEF membranes, LC-MS/MS. The protocol:
as §1

For a further assay, the target named is T2, Integrin beta-1 (mouse, UniProt P09055 21-798).
T2 construct: also called Itgb1; α3β1 integrin (beta chain)
The assay can be described thus: TAP-tag purification from MEF membranes, LC-MS/MS. The protocol:
as §1

Assay [2] addresses T3, PGRL/EWI-2 (endogenous, MEF cells) (mouse, UniProt Q8R366 26-611).
T3 construct: also called Igsf8
T3 sequence (looked up): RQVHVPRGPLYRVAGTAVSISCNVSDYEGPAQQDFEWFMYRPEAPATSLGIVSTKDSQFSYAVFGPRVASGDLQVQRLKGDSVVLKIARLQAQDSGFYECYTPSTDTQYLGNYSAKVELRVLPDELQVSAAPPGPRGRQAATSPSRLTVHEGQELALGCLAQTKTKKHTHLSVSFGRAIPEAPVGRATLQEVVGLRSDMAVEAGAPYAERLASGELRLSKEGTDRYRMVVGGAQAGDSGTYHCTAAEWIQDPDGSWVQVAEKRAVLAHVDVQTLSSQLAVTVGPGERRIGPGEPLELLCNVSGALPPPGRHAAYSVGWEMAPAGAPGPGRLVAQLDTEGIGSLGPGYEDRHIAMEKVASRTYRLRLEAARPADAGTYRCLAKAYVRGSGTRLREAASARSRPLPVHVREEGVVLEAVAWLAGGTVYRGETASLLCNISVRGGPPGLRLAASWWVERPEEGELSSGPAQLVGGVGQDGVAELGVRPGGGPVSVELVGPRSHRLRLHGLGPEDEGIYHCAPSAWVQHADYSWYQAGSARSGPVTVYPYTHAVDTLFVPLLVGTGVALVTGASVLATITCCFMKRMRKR
Description: TAP-tag purification from MEF membranes, LC-MS/MS. On the procedure: as §1

Assay [3] concerns the target T4, Nicastrin (endogenous, MEF cells) (mouse, UniProt P57716 28-708).
T4 construct: also called NCT
Description: TAP-tag purification from MEF membranes, Western blot.
Description: Insoluble fractions were removed by centrifugation at 15,000×g for 15 minutes at 4° C. Protein concentration was determined by the Bradford dye-binding procedure (Bio-Rad). […] Membranes were blocked with 5% skim milk in TBS and probed with antibodies followed by incubation with horseradish peroxidase conjugated antibodies (Bio-Rad). Bands were detected with Renaissance (ParkinElmer).
Harvested MEF cells were re-suspended in STE buffer (5 mM Tris-HCl pH 7.4, 250 mM sucrose, 1 mM EGTA) supplemented with the Complete protease inhibitors. The cells were lysed by being passed ten times through a ball-bearing cell cracker followed by removal of the nuclei and cell debris by centrifugation at 800×g for ten minutes at 4° C. The supernatant was further centrifuged at 100,000×g for 60 minutes at 4° C. The microsomal membrane pellet was re-suspended in the solubilization buffer (HEPES buffer; 50 mM HEPES pH 7.2, 150 mM NaCl with 1% 3-[(3-Cholamidopropyl)dimethylammonio]-2-hydroxy-1-propanesulfonate (CHAPSO, Calbiochem) or 0.5% 3-[(3-Cholamidopropyl) dimethylammonio]-1-propanesulfonate (CHAPS, Calbiochem)) supplemented with the Complete protease inhibitors and was solubilized at 4° C. for three hours. After centrifugation at 100,000×g for 60 minutes at 4° C., the supernatant was saved and protein concentration was determined. […]

For B1, the binding result in assay [1] was “no binding”.
For the molecule B2, the binding result (with Integrin alpha-3; with Integrin beta-1; in assay [2]; in assay [3]) was “no binding” in each case.
